From patent US20120039915A1 (University of California, published 2012)

T1: CD133 (human, UniProt O43490 20-865)
T1 construct: whole, on cells; also called CD133 molecule
T1 sequence (looked up): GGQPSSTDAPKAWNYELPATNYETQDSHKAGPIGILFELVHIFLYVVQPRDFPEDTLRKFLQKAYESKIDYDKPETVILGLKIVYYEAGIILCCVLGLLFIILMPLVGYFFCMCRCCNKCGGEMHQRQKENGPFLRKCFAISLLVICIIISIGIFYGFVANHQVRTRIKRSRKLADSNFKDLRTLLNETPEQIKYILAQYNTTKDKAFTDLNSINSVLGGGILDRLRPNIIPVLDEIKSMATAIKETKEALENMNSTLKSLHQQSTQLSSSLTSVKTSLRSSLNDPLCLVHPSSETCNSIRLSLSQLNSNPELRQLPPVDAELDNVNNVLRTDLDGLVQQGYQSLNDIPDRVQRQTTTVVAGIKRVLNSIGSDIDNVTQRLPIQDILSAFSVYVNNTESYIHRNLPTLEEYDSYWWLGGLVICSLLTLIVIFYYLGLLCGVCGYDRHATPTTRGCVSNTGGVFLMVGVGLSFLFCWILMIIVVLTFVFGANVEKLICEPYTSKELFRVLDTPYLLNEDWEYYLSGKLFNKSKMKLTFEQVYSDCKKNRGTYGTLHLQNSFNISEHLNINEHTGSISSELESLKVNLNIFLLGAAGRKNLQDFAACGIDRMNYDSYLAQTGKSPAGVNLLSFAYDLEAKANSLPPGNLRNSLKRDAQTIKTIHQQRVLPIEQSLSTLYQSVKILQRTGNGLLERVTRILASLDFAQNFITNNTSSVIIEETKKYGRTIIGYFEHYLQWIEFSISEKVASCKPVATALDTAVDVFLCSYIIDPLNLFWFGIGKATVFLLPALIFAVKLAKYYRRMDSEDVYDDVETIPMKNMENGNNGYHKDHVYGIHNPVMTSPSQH

B1: GC4 scFv (scFv)
scFv: QVQLVESGGGLVQPGGSLRLSCAASGFTFGTYDMSWVRQAPGKGLEWVSGISGSGGSTYYADSVKGRFTISRDNSKNTVYLQMNSLRVEDTAVYYCARGGWYSDNWGQGTLVTVSSGGGGSGGGGSGGGGSSELTQDPAVSVALGQTVRITCQGGSLRSYYASWYQQKPGQAPLLVIYGENNRPSGIPDRFSGSSSGNTASLTITGAQAEDEADYYCHSRDSSGNHVVFGGGTKLTV
notes: Human scFv from a naive fd phage library; also called GC4 phage antibody; parental GC4 scFv; not shown: lette
B2: GH9 scFv (scFv)
scFv: QVQLQESGGGLVKPGGSLRLSCAASGFTFSSYSMNWVRQAPGQGLEWVSSISSRNSDIYYADSVRGRFTISRDNAKNSLYLQMNSLRAEDTAVYYCARDSSGYSSSPSDYWGQGTLVTVSSGGGGSGGGGSGGGGSNFMLTQPPSVSVAPGKTASLTCGGYNIGTKSVHWYQQKPGQAPVVVVHDDSDRPSGIPERFSGSNSGTTATLTISRVEAGDEADYYCQAWDSISEEVVFGGGTKLTV
notes: On fd phage in FACS; His-tagged soluble scFv in the immunoprecipitation; also called GH9 phage antibody; not shown: lette
B3: GB8 scFv (scFv)
scFv: QVQLVESGGGLVQPGGSLRLSCAASGFTFSNYALTWVRQAPGKGLEWVSAISGSGGSTYYADSVKGRFTISRDTSKNTLYLQMNSLRAEDTAVYYCARGGYSYGPPFDYWGQGTLVTVSSGGGGSGGGGSGGGGSSELTQDPAVSVALGQTVRITCQGDSLRSYYASWYQQKPGQAPVLVIYGKNKRPSGIPDRFSGSSSGNTASLTITGAQAVDEADYHCNSRDSSGNHVVFGGGTKLTV
notes: His-tagged soluble scFv in the immunoprecipitation; also called GB8 phage antibody; not shown: lette
B4: GB1 scFv (scFv)
scFv: QVQLVQSGGGLVKPGGSLRLSCAASGFTFSNAWMNWVRQAPGKGLEWVGRIKSKTDGGTTDYAAPVNGRFTISRDDSKNTLYLQMNSLKTEDTAVYSCTTENWGSVNWGQGTLVTVSSGGGGSGGGGSGGGGSNFMLTQPPSVSVAPGKTASLTCGYNIGTKSVHWYQQKPGQAPVVVVHDDSDRPSGIPERFSGSNSGTTATLTISRVEAGDEADYYCQAWDSISEEVVFGGGTKLTV
notes: On fd phage in the Caco-2 FACS; His-tagged soluble scFv in the immunoprecipitation; also called GB1 phage antibody; not shown: lette

Legend:
[1] = target: T2, antigen bound by the GC4 antibody on GBM tumor sphere cells (target antigen not determined); experiment: FACS on GBM tumor sphere cells at RT, MFI fitted (apparent dissociation constant)
T2 construct: also called GBM tumor spheres; GBM sphere cells
Method: FIG. 7A depicts the production of recombinant GC4 IgG. H: heavy chain. L: light chain. MW: molecular weight. […] Ctr: a non-binding human IgG1. […] FACS analysis was performed to determine binding of GC4 IgG1 (1 μg/ml) in the presence of the parental GC4 or four other scFvs (50 μg/ml each). Binding was detected by fluorescently labeled anti-human IgG antibody. Normalized mean fluorescence intensities were used to compare binding results. Error bars indicate standard deviations of duplicated experiments. *, P<0.05. […] MFI values were fitted using GraphPad. FIG. 7E depicts the binding constant of GC4 scFv to GBM tumor spheres. […] MFI values were fitted using GraphPad.
Affinity measurement: Varying concentrations of GC4 IgG1s were incubated with 10⁵ GBM cells at RT for 1 h in PBS containing 0.25% BSA. Bound IgG1s were detected by PE-conjugated goat anti-human antibody (Jackson ImmunoResearch) following incubation at RT for 30 min. Apparent dissociation constant was determined by FACS with mean fluorescence intensity (MFI) data fitted using GraphPad Prism (GraphPad Software). The apparent dissociation constant of GC4 scFv was measured similarly except that bound scFvs were detected by mouse anti-hexahistidine antibody (AbD Serotec/MorphoSys) followed by PE-conjugated goat anti-mouse antibody (Jackson ImmunoResearch).

CD133 [2] = target: T1, CD133; experiment: FACS, biotin-labelled GC4 scFv on Caco2 cells (CD133-high by paragraph 182); '-' means lack of significant binding
Method: For Table 1-6, biotin-labeled GC4 scFvs were tested for binding to a panel of human cell lines (all were tumor lines, except for BPH-1) by FACS. “+” indicates binding and “-” indicated lack of significant binding. Du-145 cells were derived from brain metastasis of prostate tumor.

CD133 [3] = target: T1, CD133; experiment: FACS, phage on Caco-2 cells
Method: FIG. 3 depicts the results of co-expression of the CD133 epitope and phage-bound antigens. FIG. 3A depicts FITC-labeled phage antibodies and biotin-labeled anti-CD133 mAb were studied on GBM sphere cells. A typical result from studies on GBMx-1 sphere cells is shown. Percentage of total cells is indicated for each quadrant. […] PE-conjugated control mouse IgG and anti-CD133 mAb were incubated with Caoa-2 cells and binding detected by FACS. […] Four tumor sphere cell-targeting phage (GB1, GB8, GH9 and GC4) were tested. Negative control: a non-binding phage. Positive control: a Caco-2 binding phage preparation. FIG. 3D depicts the results of antibody immunoprecipitation of Caco-2 lysates. Lane 1: immunoprecipitation with anti-CD133 mAb. Lane 2: immunoprecipitation with the GC4 antibody. All immunoprecipitation products were analyzed on a SDS-PAGE gel followed by Western blot with anti-CD133 antibody and horseradish peroxidase-conjugated anti-mouse secondary antibody. Arrow indicates CD133. Molecular weights (kd) are indicated.
Phage antibody binding to antigens other than CD133: Caco-2 cells that express high levels of CD133 were incubated with phage antibodies along with the positive control PE-conjugated anti-CD133 antibody at 4° C. for 1 h, washed twice with PBS, and bound phage detected by biotin-labeled anti-fd antibody followed by streptavidin-R-PE, and analyzed by FACS. For immunoprecipitation studies, 10⁵ Caco-2 cells were lysed in 1% NP40, 0.15 M NaCl, and 0.01 M sodium phosphate, pH 7.2, on ice for 2 h. Lysates were precleared and incubated with 50 μg/ml scFvs bearing a hexahistidine tag at 4° C. for 1 h, and captured onto Ni-NTA+ beads (Qiagen). […] All immunoprecipitation products were analyzed by 4-20% gradient SDS-PAGE, followed by Western blot with mouse anti-CD133 followed by horseradish peroxidase-conjugated goat anti-mouse antibody (Jackson ImmunoResearch) using ECL Plus™ (GE Healthcare).

Binder | Kd [1] [nM] | binding result (CD133 [2]) | binding result (CD133 [3])
B1 | 222 | no binding | –
B2 | – | – | no binding
B3 | – | – | no binding
B4 | – | – | no binding
